The values below come from paper PMC8897147.

The target in the assay is SV1, splice variant of GHRHR, -Rluc8. The experiment in a line: FRET or BRET.
Sequence of SV1, splice variant of GHRHR, -Rluc8 (Q02643 23-423, change not shown): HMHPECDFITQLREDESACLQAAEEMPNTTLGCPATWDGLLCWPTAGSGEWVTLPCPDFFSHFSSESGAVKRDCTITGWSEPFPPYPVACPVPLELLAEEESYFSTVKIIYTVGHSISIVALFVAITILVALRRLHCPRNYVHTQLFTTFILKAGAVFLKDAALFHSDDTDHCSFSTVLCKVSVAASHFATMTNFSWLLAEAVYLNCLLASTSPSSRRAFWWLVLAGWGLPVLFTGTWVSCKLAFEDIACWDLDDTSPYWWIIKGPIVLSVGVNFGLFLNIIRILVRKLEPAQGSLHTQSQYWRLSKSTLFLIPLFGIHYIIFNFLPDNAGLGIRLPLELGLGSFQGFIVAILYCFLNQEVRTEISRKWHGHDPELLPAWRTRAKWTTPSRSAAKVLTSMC

Sequence of RAMP2-Ypet (receptor activity-modulating protein 2) (O60895 43-175): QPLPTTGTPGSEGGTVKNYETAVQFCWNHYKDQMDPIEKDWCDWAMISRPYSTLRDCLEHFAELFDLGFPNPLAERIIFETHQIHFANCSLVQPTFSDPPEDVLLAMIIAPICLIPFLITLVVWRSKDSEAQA

Regarding “RAMP1-Ypet (receptor activity-modulating protein 1) (from UniProt O60894 27-148) (natural protein)”, the BRET50 (Kd) (intensity ratio of RAMP:receptor) stood at 4.4.

On to “RAMP2-Ypet (receptor activity-modulating protein 2) (from UniProt O60895 43-175) (natural protein)”, for which the BRET50 (Kd) (intensity ratio of RAMP:receptor) came to 2.36.
